Measurements published in US20180237497A1 (CANCER RESEARCH TECHNOLOGY, published 2018).
Substitutions are numbered along the chain they refer to. Names may count otherwise. Blank lines part the entries; values can stand above or below the binder they belong to.

Tests used:
[1] = target: T1, human IGF2^1-67 (mature insulin-like growth factor 2) (human, UniProt P01344 25-91, biotinylated (site not stated) where immobilised on the chip (Tables 1-4)); assay: SPR kinetic, Fc fusion captured by anti-human IgG, pH 7.4
T1 construct: mature; also called mature IGF2; biotinylated IGF2
T1 sequence (P01344 25-91): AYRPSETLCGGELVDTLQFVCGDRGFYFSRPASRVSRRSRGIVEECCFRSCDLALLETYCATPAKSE
Description: (§1) SPR analysis of the interaction of recombinant IGF1 and IGF2 forms with Fc-domain 11 proteins immobilised by antibody capture (CM5 chip containing monoclonal mouse anti-human IgG antibody immobilised by amine coupling). Measurements were carried out at 25° C. in HBS-EP buffer (pH 7.4).
(§2) Final kinetic analysis of mutants by SPR was conducted using a Biacore T200 biosensor at 25° C. in either HBS-EP (10 mM HEPES pH 7.4, 150 mM NaCl, 3 mM EDTA, and 0.005% (v/v) surfactant P20) or MES-EP (20 mM MES pH 6.5, 150 mM NaCl, 3 mM EDTA, and 0.005% (v/v) surfactant P20) at a flow-rate of 40 μL min⁻¹. […] For the analysis of the Fc-domain 11^AB5 interaction, approximately 50 RU of a biotinylated IGF2:biotinylated ubiquitin mixture (1:8 proportion) was immobilized on the CM5-streptavidin chip. This interaction was also analysed by immobilizing the Fc-domain 11^AB5 and Fc-domain 11^AB5-RHH (or Fc-domain 11^I1572A as control) by Human Antibody Capture (monoclonal mouse anti-human IgG antibody immobilised on a CM5 chip by amine coupling, GE Healthcare) with and without human IgG1 Fc fragment (Bethyl Laboratories, UK) in the control flow cell. […] T200 BiaEvaluation software (GE Healthcare) was used to fit the resulting curves according to a 1:1 binding model. Steady state affinities were determined using the kinetic data, taking the response average at 5 seconds before injection end and for 5 seconds average. Thermodynamic data was performed across the temperature range of 10° C. to 30° C., van't Hoff and Erying plots generated and ΔH, −TΔS and ΔG values determined as previously described.

[2] = target: T2, pro-IGF2^1-156 (UniProt P01344 25-180); assay: as above
T2 construct: range 1-156
T2 sequence (P01344 25-180 limits assumed): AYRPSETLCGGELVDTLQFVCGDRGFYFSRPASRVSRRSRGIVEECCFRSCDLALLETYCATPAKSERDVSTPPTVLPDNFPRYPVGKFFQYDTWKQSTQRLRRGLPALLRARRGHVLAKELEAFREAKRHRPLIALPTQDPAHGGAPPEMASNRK
Description: as §1, §2

[3] = target: pro-IGF2^1-104 (UniProt P01344 25-128); assay: as above
Chain of pro-IGF2^1-104 (P01344 25-128 limits assumed): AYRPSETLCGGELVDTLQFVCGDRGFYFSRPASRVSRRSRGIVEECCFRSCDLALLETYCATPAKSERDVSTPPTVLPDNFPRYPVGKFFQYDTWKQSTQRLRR
Description: as §1, §2

[4] = target: T1, human IGF2^1-67 (mature insulin-like …); assay: cell-based or functional assay
[5] = target: T1, human IGF2^1-67 (mature insulin-like …); assay: SPR (Biacore T200, 25 °C, HBS-EP pH 7.4); ΔΔG° = RT ln(KD mutant / KD domain 11^AB3); box AB+FG
Description: (§3) Boxes show the change in the binding free energy contribution, ΔΔGº, for the indicated mutants. The loop/s that contains the mutation/s is indicated in each box. The ΔΔGº values were calculated as ΔΔGº=ΔGº domain 11^mutant−ΔGº domain 11^AB3=RTln(KD domain 11^mutant/KD domain 11^AB3). Additive and non-additive contributions of single point mutations are shown when calculated with a box solid line and dashed line, respectively.
as §2, with “average.” for “average. Thermodynamic data was performed across the temperature range of 10° C. to 30° C., van't Hoff and Erying plots generated and ΔH, −TΔS and ΔG values determined as previously described.”

[6] = target: T1, human IGF2^1-67 (mature insulin-like …); assay: SPR kinetic, biotin-IGF2 on chip, pH 7.4
Description: as §2

[7] = target: T1, human IGF2^1-67 (mature insulin-like …); assay: SPR kinetic, biotin-IGF2 on chip
Description: as §2

[8] = target: T1, human IGF2^1-67 (mature insulin-like …); assay: SPR steady state, biotin-IGF2 on chip, pH 7.4
Description: as §2

[9] = target: T1, human IGF2^1-67 (mature insulin-like …); assay: SPR
From the text: Surface plasmon resonance (SPR) binding analysis of recombinant M6P/IGF2R domain 11 mutants interaction with IGF2. Kon indicates association (on) rate; koff, dissociation (off) rate; RU, response units. Binding to IGF2 assessed with BIAcore T200 using purified biotinylated IGF2 and IGF1 on a streptavidin biosensor chip. Recombinant proteins were expressed either in E. coli and/or P. pastoris. All the mutants in the FG and CD loops are on the domain 11^AB5 background for the AB loop unless otherwise stated. All experiments were carried out at 25° C. in HBS-EP buffer (pH 7.4), were repeated 2-5 times on two independent BIAcore chips. nd=not determined. Data for KD expressed as mean of each experiment, and means of kon and koff are shown.
as §2, with “model.” for “model. Steady state affinities were determined using the kinetic data, taking the response average at 5 seconds before injection end and for 5 seconds average. Thermodynamic data was performed across the temperature range of 10° C. to 30° C., van't Hoff and Erying plots generated and ΔH, −TΔS and ΔG values determined as previously described.”

[10] = target: T1, human IGF2^1-67 (mature insulin-like …); assay: SPR steady state, biotin-IGF2 on chip
Description: as §2

[11] = target: T1, human IGF2^1-67 (mature insulin-like …); assay: SPR (Biacore T200, 25 °C, HBS-EP pH 7.4); ΔΔG° = RT ln(KD mutant / KD domain 11^AB3); box AB+CD
Description: as §3
(§4) Final kinetic analysis of mutants by SPR was conducted using a Biacore T200 biosensor at 25° C. in either HBS-EP (10 mM HEPES pH 7.4, 150 mM NaCl, 3 mM EDTA, and 0.005% (v/v) surfactant P20) or MES-EP (20 mM MES pH 6.5, 150 mM NaCl, 3 mM EDTA, and 0.005% (v/v) surfactant P20) at a flow-rate of 40 μL min⁻¹. […] This interaction was also analysed by immobilizing the Fc-domain 11^AB5 and Fc-domain 11^AB5-RHH (or Fc-domain 11^I1572A as control) by Human Antibody Capture (monoclonal mouse anti-human IgG antibody immobilised on a CM5 chip by amine coupling, GE Healthcare) with and without human IgG1 Fc fragment (Bethyl Laboratories, UK) in the control flow cell. […] Steady state affinities were determined using the kinetic data, taking the response average at 5 seconds before injection end and for 5 seconds average.

[12] = target: T1, human IGF2^1-67 (mature insulin-like …); assay: SPR kinetic, biotin-IGF2 on chip, pH 6.5
Description: Measurements were carried out at 25° C. in MES-EP buffer, 20 mM MES pH 6.5, 150 mM NaCl, 3 mM EDTA, and 0.005% (v/v) surfactant P20). Data for KD expressed as mean of each experiment, and means of kon and koff are shown.
as §2

[13] = target: T1, human IGF2^1-67 (mature insulin-like …); assay: SPR (Biacore T200, 25 °C, HBS-EP pH 7.4); ΔΔG° = RT ln(KD mutant / KD domain 11^AB3); box AB+CD+FG, dashed outline
Description: as §3, §4

[14] = target: T1, human IGF2^1-67 (mature insulin-like …); assay: SPR, biotin-IGF2 on chip, pH 7.4

- Kd [1]: 3.89 nM
- koff [1]: 0.025 s⁻¹
- kon [1]: 6.47e+06 M⁻¹ s⁻¹
- Kd [2]: 0.21 nM
- koff [2]: 0.0009 s⁻¹
- kon [2]: 4.19e+06 M⁻¹ s⁻¹
- Kd [3]: 0.54 nM
- koff [3]: 0.0069 s⁻¹
- kon [3]: 1.29e+07 M⁻¹ s⁻¹
B1: human IgG1 Fc-domain 11^AB5 fusion protein (Fc fusion)
chain: NEHDDCQVTNPSTGHLFDLSSLSGRAGFTAAYAKGWGVYMSICGENENCPPGVGACFGQTRISVGKANKRLRYVDQVLQLVYKDGSPCPSKSGLSYKSVISFVCRPEAGPTNRPMLISLDKQTCTLFFSWHTPLACEQAT
notes: Made in HEK293T; also called Fc-domain II^AB5; pHLSec-AB5-hIgG1; not shown: human IgG1 Fc
- IC50, cell viability of HT29/219 in serum free conditions [4]: 1700 nM
- IC50, cell viability of Hep3B in serum free conditions [4]: 35500 nM
- IC50, cell viability of Huh7 in serum free conditions [4]: 1200 nM

- ΔΔG [5]: -1.49 kcal/mol
- Kd [6]: 1.23 nM
- koff [6]: 0.013 s⁻¹
- kon [6]: 1.06e+07 M⁻¹ s⁻¹
- Kd [7]: 1.23 nM
- koff [7]: 0.013 s⁻¹
- kon [7]: 1.06e+07 M⁻¹ s⁻¹
- Kd [8]: 1.76 nM
- fold change of KD against domain 11^AB3 [9]: 10 fold
- fold reduction of koff against domain 11^AB3 [9]: 4 fold
- Kd [10]: 1.76 nM
B2: domain 11^AB3 P1597H (receptor)
chain: MKSNEHDDCQVTNPSTGHLFDLSSLSGRAGFTAAYSKSGVVYMSICGENENCPPGVGACFGQTRISVGKANKRLRYVDQVLQLVYKDGSHCPSKSGLSYKSVISFVCRPEAGPTNRPMLISLDKQTCTLFFSWHTPLACEQATECSV
notes: See m5; also called AB3 + 62B (FG-P1597H)

- Kd [6]: 2.24 nM
- koff [6]: 0.0175 s⁻¹
- kon [6]: 8.04e+06 M⁻¹ s⁻¹
- ΔΔG [11]: -1.13 kcal/mol
- Kd [8]: 3.22 nM
B3: domain 11^AB5 Q1569R (receptor)
chain: B2 chain with S36A, S38G, G39W, V40G, Q62R, H90P
notes: See m5

- Kd [6]: 0.9 nM
- koff [6]: 0.0153 s⁻¹
- kon [6]: 1.89e+07 M⁻¹ s⁻¹
- Kd [8]: 1.73 nM
- Kd [12]: 0.47 nM
- koff [12]: 0.0091 s⁻¹
- kon [12]: 1.99e+07 M⁻¹ s⁻¹
- ΔΔG [13]: -1.68 kcal/mol
B4: domain 11^AB3 Q1569R P1597H (receptor)
chain: B2 chain with Q62R
notes: See m5

- Kd [6]: 2.3 nM
- koff [6]: 0.031 s⁻¹
- kon [6]: 1.36e+07 M⁻¹ s⁻¹
- ΔΔG [11]: -1.12 kcal/mol
- Kd [7]: 2.3 nM
- koff [7]: 0.031 s⁻¹
- kon [7]: 1.36e+07 M⁻¹ s⁻¹
- Kd [8]: 3.15 nM
- Kd [10]: 3.15 nM
B5: domain 11^AB3 Q1569R (receptor)
chain: B2 chain with Q62R, H90P
notes: See m5; also called AB3 + 73E (CD-Q1569R)

- koff [14]: 0.012 s⁻¹
B6: domain 11^AB3 P1597H HI^23D (receptor)
chain: B2 chain with D123H, K124F, T126S
notes: See m5; Only koff printed

- Kd [6]: 1.95 nM
- koff [6]: 0.0058 s⁻¹
- kon [6]: 3.2e+06 M⁻¹ s⁻¹
- Kd [8]: 5.4 nM
- Kd [12]: 1.46 nM
- koff [12]: 0.0034 s⁻¹
- kon [12]: 2.37e+06 M⁻¹ s⁻¹
- ΔΔG [13]: -1.22 kcal/mol
B7: domain 11^AB5 Q1569R P1597H (receptor)
chain: B2 chain with S36A, S38G, G39W, V40G, Q62R
notes: See m5

- koff [14]: 0.008 s⁻¹
B8: domain 11^AB5 Q1569R P1597K S1602H G1603K (receptor)
chain: B2 chain with S36A, S38G, G39W, V40G, Q62R, H90K, S95H, G96K
notes: See m5; Only koff printed; other cells np (no protein)

- koff [14]: 0.005 s⁻¹
B9: domain 11^AB5 Q1569R P1597H S1602H G1603K (receptor)
chain: B2 chain with S36A, S38G, G39W, V40G, Q62R, S95H, G96K
notes: as for B8

- koff [14]: 0.012 s⁻¹
B10: domain 11^AB5 HI^23D (receptor)
chain: B2 chain with S36A, S38G, G39W, V40G, H90P, D123H, K124F, T126S
notes: as for B8
